Source: US20040053231A1 (published 2004)

B1: HCITEDX mutant lacking the carboxy-terminal residues 138 to 184 (other)
chain: MADHLMLAEGYRLVQRPPSAAAAHGPHALRTLPPYAGPGLDSGLRPRGAPLGPPPPRQPGALAYGAFGPPSSFQPFPAVPPPAAGIAHLQPVATPYPGRAAAPPNAPGGPPGPQPAPSAAAPPPPAHALGGMDAELI
modifications: 35S-labelled (in vitro translated) in the GST pull-down assay
notes: also called HCITEDXΔ; carboxy-terminal mutant
B2: VP16-HCITEDX? (VP16 activation domain fused to residues 1-137 of HCITEDX) (other)
chain: B1 chain
notes: also called VP16-HCITEDXΔ

Legend:
[1] = target: T1, GST-p300CH1 (p300 residues 300-528) (UniProt Q09472 300-528); assay: GST pull-down of 35S-labelled in vitro translated protein on GST-p300CH1
T1 construct: range 300-528; Bacterially expressed, immobilised on glutathione beads; the construct is described in Bhattacharya et al., 1999; also called GST-CH1; GST tagged p300 (CH1 domain); not shown: glutathione S-transferase tag from pGEX4T1 (Pharmacia)
T1 sequence (Q09472 300-528): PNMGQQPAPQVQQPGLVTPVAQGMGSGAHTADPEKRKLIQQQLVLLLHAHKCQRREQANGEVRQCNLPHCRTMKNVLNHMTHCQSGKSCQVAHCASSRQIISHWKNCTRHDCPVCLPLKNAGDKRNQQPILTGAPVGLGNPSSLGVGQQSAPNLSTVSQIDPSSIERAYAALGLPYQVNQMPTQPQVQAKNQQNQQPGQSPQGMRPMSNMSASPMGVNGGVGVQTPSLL

[2] = target: T2, GAL4-CH1 (residues 300-528 of p300 fused to the DNA-binding domain of GAL4) (UniProt P04386 1-147; Q09472 300-528); assay: mammalian two-hybrid, GAL4-luciferase reporter, Hep3B cells
T2 construct: also called GAL4-p300CH1

Binder	binding result [1]	binding result [2]
B1	no binding	–
B2	–	no binding
